Test results: article PMC6270503, “The Clip-Segment of the von Willebrand Domain 1 of the BMP Modulator Protein Crossveinless 2 Is Preformed” (Molecules, 2013)

Biological target: T1, E. coli derived recombinant human BMP-2 (human, UniProt P12643 283-396)
T1 construct: Bone morphogenetic protein 2, human, recombinant from E. coli; also called bone morphogenetic protein 2
Test: SPR; ProteON XPR36, GLC chip; BMP-2 immobilised by amine coupling (1000-2000 RU), CV2 VWC1 proteins as analytes in six concentrations; 25 °C, HBST500 (10 mM HEPES pH 7.4, 500 mM NaCl, 0.005% Tween20); global Langmuir 1:1 fit, KD = koff/kon, or from dose-dependency of equilibrium binding for weak or fast binders; apparent KD
Details: both partners purified

T1 sequence (P12643 283-396): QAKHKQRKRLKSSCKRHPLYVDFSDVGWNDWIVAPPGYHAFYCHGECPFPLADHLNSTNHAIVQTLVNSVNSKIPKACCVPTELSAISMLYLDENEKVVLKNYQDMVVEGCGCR

Kd: ≥ 3.3 µM
koff: ≥ 0.05 s⁻¹
B1: CV2 VWC1 C9A/C31A (domain or fragment)
chain: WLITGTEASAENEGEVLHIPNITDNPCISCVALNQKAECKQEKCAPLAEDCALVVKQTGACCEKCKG
modifications: Mature numbering = entity position minus 3 (C9A/C31A = C12A/C34A). Introduced N-terminal Trp kept; vector Gly-Ser left out. Remaining native disulfides, including Cys26-Cys60, Cys43-Cys61 and …
